Test results from article PMC11630572, “Discovery of Nanosota-9 as anti-Omicron nanobody therapeutic candidate” (PLOS Pathogens, 2024).

Experiments:
Assay in all cases: SPR; Biacore S200; spike ectodomain immobilized on CM5 chip by chemical crosslinking; Nanosota-9-His injected at 8, 16, 32, 64, 128 nM; running buffer 10 mM HEPES, 150 mM NaCl, 0.05% Tween 20
Conditions in all cases: both partners purified
[1] = biological target: T1, recombinant spike ectodomain of SARS-CoV-2 Omicron subvariant BA.5 (SARS-CoV-2 Omicron BA.5, strain)
T1 construct: also called BA.5 spike ectodomain; BA.5 spike; not shown: His tag, C-terminal, kept

[2] = biological target: T2, recombinant spike ectodomain of SARS-CoV-2 Omicron subvariant JN.1 (SARS-CoV-2 Omicron JN.1, strain)
T2 construct: The same GISAID id is printed for XBB.1.5 and JN.1; also called JN.1 spike ectodomain; JN.1 spike; not shown: His tag, C-terminal, kept

[3] = biological target: T3, recombinant spike ectodomain of SARS-CoV-2 Omicron subvariant XBB.1.5 (SARS-CoV-2 Omicron XBB.1.5, strain)
T3 construct: The same GISAID id is printed for XBB.1.5 and JN.1; also called XBB.1.5 spike ectodomain; XBB.1.5 spike; not shown: His tag, C-terminal, kept

B1: His-tagged Nanosota-9 (Nanosota-9-His) (VHH)
VHH: QVQLQESGGGLVQPGGSLRLSCTASGIALHTHATGWFRQAPGKEREGVSCISSGDGTTYYEDSVEGRFTISRDNAKNTVYLQMNSLKLEDTAVYYCAADPGAVCHSGSYYYTDDDFYYRGQGTQVTVSS
notes: Nanosota-9 nanobody from an alpaca immunized with the BA.5 spike ectodomain; also called monomeric Nanosota-9; not shown: His tag, C-terminal, kept
- Kd [1]: 78 pM
- Kd [2]: 29400 pM
- Kd [3]: 60 pM
